Measured values reported in patent publication US20260167684A1 (MERIDA BIOSCIENCES, published 2026).
Where a chain is given by its changes, count along the chain named. Names and notes keep the numbering of the source. Values belong to the binder of their own block, whether it stands above or below them.

Legend:
FcγRIIB [1] = target: T1, FcγRIIB (human, UniProt P31994 46-217, limits assumed); assay: SPR; molecule captured on CM5 chip, FcγR as analyte; steady-state fit
T1 construct: Soluble protein used in SPR
T1 sequence (looked up): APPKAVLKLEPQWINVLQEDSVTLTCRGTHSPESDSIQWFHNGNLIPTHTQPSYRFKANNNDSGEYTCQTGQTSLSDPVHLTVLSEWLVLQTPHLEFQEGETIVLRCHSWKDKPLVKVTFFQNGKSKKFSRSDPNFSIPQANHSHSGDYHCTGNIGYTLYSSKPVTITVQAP
Description: (§1) Binding assays using SPR were performed to determine the binding affinity of the exemplary molecules. Molecules were captured on a CM5 SPR chip. Increasing concentrations of FcγR analyte (FcγRIIA167H, FcγRIIA167R or FcγRIIB) were subsequently injected over the captured molecules and a single dissociation performed using single cycle kinetics. The data was then analyzed using steady state analysis which is suitable for low affinity interactions. In particular, a plot of response at equilibrium against the molecule concentration was generated.

FcγRIIA167H [2] = target: T2, FcγRIIA167H (UniProt P12318 36-218); assay: SPR, molecule captured on the sensor chip, FcγRIIA167H as analyte
T2 construct: Soluble protein used in SPR
T2 sequence (looked up): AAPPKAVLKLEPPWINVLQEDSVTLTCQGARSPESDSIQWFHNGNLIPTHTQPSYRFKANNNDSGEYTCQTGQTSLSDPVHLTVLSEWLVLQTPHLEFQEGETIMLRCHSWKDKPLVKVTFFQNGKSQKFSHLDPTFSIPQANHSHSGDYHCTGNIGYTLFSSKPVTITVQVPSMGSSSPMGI
Description: as §1

FcγRIIA167R [3] = target: T3, FcγRIIA167R (UniProt P12318 36-218); assay: SPR, molecule captured on the sensor chip, FcγRIIA167R as analyte
T3 construct: Soluble protein used in SPR
T3 sequence (looked up): T2 sequence (looked up) with H132R
Description: as §1

FcγRIIB [4] = target: T1, FcγRIIB; assay: SPR, molecule captured on the sensor chip, FcγRIIB as analyte; steady state plot of response against analyte concentration
human C1q = target: T4, human C1q (human, UniProt P02745 23-245; P02746 28-253; P02747 29-245); assay: ELISA (n=2), serial dilutions of the molecule coated on the plate, human C1q at 5 µg/mL, anti-C1q HRP detection
T4 construct: also called complement (C1q)
T4 sequence (P02745 23-245 limits assumed, chain 1 of 3): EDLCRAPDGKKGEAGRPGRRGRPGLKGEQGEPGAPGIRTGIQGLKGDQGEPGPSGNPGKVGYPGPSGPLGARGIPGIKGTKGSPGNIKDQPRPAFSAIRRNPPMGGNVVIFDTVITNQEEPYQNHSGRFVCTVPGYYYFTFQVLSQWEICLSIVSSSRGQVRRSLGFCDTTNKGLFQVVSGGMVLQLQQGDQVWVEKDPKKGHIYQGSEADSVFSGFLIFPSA
T4 sequence (P02746 28-253 limits assumed, chain 2 of 3): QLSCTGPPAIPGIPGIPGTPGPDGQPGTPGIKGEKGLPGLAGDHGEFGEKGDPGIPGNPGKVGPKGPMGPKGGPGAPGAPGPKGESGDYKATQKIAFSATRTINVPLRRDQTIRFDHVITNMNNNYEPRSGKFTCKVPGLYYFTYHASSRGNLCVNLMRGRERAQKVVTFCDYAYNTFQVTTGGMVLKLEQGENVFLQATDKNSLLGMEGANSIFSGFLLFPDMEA
T4 sequence (P02747 29-245 limits assumed, chain 3 of 3): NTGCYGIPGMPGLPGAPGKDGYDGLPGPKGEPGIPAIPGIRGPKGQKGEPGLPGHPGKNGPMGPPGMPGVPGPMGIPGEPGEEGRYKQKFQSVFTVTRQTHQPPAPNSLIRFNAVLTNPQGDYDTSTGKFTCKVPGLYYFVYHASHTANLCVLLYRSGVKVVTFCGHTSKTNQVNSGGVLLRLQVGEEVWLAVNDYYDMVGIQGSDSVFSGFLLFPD
Description: An IgG4 was used as a negative control.
Varying dilutions of each exemplary molecule or one of the controls were tested for binding to C1q by ELISA where serial dilutions of molecules or controls were coated on a plate (at 0.01 μg/mL, 0.1 μg/mL, 1.0 μg/mL, 10.0 μg/mL, 100.0 μg/mL, and 1000 μg/mL) overnight at 4 C. After blocking and subsequent wash steps, human C1q at 5 μg/mL was added to the ELISA plate for 1 hour at room temperature. The plate was washed and a sheep polyclonal anti-C1q HRP antibody at 1:200 dilution was added and incubated for an additional 1 hour. Development of the ELISA plate was carried out by addition of TMB. Color development was then stopped with addition of 3N HCl. Plate absorbance was read at 450 nm using a plate ready.

[5] = target: T5, FcγRIIB expressed on cells (CHO-FcγRIIB+ cells; primary human cells that express FcγRIIB) (human, UniProt P31994 43-310); assay: flow cytometry, CHO cells expressing FcγRIIB, molecule pre-complexed with M22-PE at 1:1 or 4:1 molar ratio, with and without anti-FcγRIIB antibody 2B6
T5 construct: whole, on cells; also called FcγRIIB-expressing CHO cells
T5 sequence (looked up): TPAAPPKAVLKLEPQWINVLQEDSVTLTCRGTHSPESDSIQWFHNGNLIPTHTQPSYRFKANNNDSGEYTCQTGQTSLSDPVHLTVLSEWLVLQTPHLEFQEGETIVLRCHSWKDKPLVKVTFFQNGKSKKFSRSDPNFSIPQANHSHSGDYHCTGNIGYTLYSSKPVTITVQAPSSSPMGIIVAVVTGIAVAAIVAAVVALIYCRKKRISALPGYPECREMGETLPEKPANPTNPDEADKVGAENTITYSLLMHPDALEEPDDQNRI
Description: Cells expressing FcγRIIB are seeded in a 96-well plate and stained with Live/Dead Violet Fixable Dye. Next, the pre-complexed molecule and autoantibody are incubated with the cells at various concentrations at either 4C (to assess binding) or 37C (to assess uptake). After incubation, cells are washed with PBS (binding) or acidic media to remove surface-bound complexes (uptake). Cellular fluorescence is determined by flow cytometry.

FcγRIIA167R [6] = target: T3, FcγRIIA167R; assay: SPR; molecule captured on CM5 chip, FcγR as analyte; steady-state fit
Description: as §1

FcγRIIA167H [7] = target: T2, FcγRIIA167H; assay: SPR, molecule captured on sensor chip, FcγRIIA167H as analyte, steady-state plot of response against concentration
Description: as §1

Kd (FcγRIIB [1]): 3.65 µM | binding result (FcγRIIA167H [2]): no binding (tested: about 2.4e-6 M) | binding result (FcγRIIA167R [3]): no binding (tested: about 2.4e-6 M)
B1: Variant G3 (Fc fusion)
chain 1: MGCSSPPCECHQEEDFRVTCKDIQRIPSLPPSTQTLKLIETHLRTIPSHAFSNLPNISRIYVSIDVTLQQLESHSFYNLSKVTHIEIRNTPNLTYIDPDALKELPLLKFLGIFNTGLKMFPPLTKVYSTDIFFILEITDNPYMTSIPRNAFQGLCNETLTLKLYNNGFTSVQGYAFNGTKLDAVYLNKNKYLTVIDKDAFGGVYSGPSLLDVSQTSVTALPSKGLEHLKELRARNTWTLDKTHTCPPCPAPVDFRDPLVFLFPPKPKDTLMISRTPEVTCVVVDVSPEDPEVKFNWYVDGVEVHNAKTKPQEEQYNGAYRVVSVLTVLHQDWLNGKEYKCKVSNKLAPHPIIKTISKAKGQPREPQVYTLPPCRDELTKNQVSLWCLVKGFYPSDIAVEWESNGQPENNYKTTPPVLDSDGSFFLYSKLTVDKSRWQQGNVFSCSVMHEALHNHYTQKSLSLSPGK
chain 2: DKTHTCPPCPAPVDFRDPLVFLFPPKPKDTLMISRTPEVTCVVVDVSPEDPEVKFNWYVDGVEVHNAKTKPQEEQYNGAYRVVSVLTVLHQDWLNGKEYKCKVSNKLAPHPIIKTISKAKGQPREPQVCTLPPSRDELTKNQVSLSCAVKGFYPSDIAVEWESNGQPENNYKTTPPVLDSDGSFFLVSKLTVDKSRWQQGNVFSCSVMHEALHNHYTQKSLSLSPGK
notes: Knob-in-hole heterodimer; also called TSHR260 2P2R huIgG1 Fc E233V/L234D/L235F/G236R/G237D/S239L/H268P/R292Q/S298G/T299A/A327L/L328A/A330H/E333I

binding result (FcγRIIB [4]): binds | binding result (human C1q): no binding (tested: 100 µg/mL) | binding result [5]: binds
B2: Variant E3 (Fc fusion)
chain 1: MGCSSPPCECHQEEDFRVTCKDIQRIPSLPPSTQTLKLIETHLRTIPSHAFSNLPNISRIYVSIDVTLQQLESHSFYNLSKVTHIEIRNTPNLTYIDPDALKELPLLKFLGIFNTGLKMFPPLTKVYSTDIFFILEITDNPYMTSIPRNAFQGLCNETLTLKLYNNGFTSVQGYAFNGTKLDAVYLNKNKYLTVIDKDAFGGVYSGPSLLDVSQTSVTALPSKGLEHLKELRARNTWTLDKTHTCPPCPAPELLGGDSVFLFPPKPKDTLMISRTPEVTCVVVDVSHEDPEVKFNWYVDGVEVHNAKTKPREEQYNSTYRVVSVLTVLHQDWLNGKEYKCKVSNKALPAPIEKTISKAKGQPREPQVYTLPPCRDELTKNQVSLWCLVKGFYPSDIAVEWESNGQPENNYKTTPPVLDSDGSFFLYSKLTVDKSRWQQGNVFSCSVLHEALHSHYTQKSLSLSPGK
chain 2: DKTHTCPPCPAPELLGGDSVFLFPPKPKDTLMISRTPEVTCVVVDVSHEDPEVKFNWYVDGVEVHNAKTKPREEQYNSTYRVVSVLTVLHQDWLNGKEYKCKVSNKALPAPIEKTISKAKGQPREPQVCTLPPSRDELTKNQVSLSCAVKGFYPSDIAVEWESNGQPENNYKTTPPVLDSDGSFFLVSKLTVDKSRWQQGNVFSCSVLHEALHSHYTQKSLSLSPGK
notes: Knob-in-hole heterodimer; also called TSHR260 2P2R huIgG1 Fc P238D/LS; TSHR260 2P2R huIgG1 with P238D and LS

Kd (FcγRIIA167R [6]): 3.49 µM | Kd (FcγRIIB [1]): 0.987 µM | binding result (FcγRIIA167H [7]): no binding (tested: about 2.4e-6 M)
B3: Variant G11 (Fc fusion)
chain 1: B2 chain 1 with D289E, P290G, D375E, L377M, L447M, S453N
chain 2: B2 chain 2 with D50E, P51G, D136E, L138M, L208M, S214N
notes: Knob-in-hole heterodimer; also called TSHR260 2P2R huIgG1 Fc P238D/D270E/P271G
